The target in experiment [1] is T1, Recombinant Human TNF-α/TNFSF1A (human, UniProt P01375 77-233).
T1 construct: Bought reagent (R&D Systems 210-TA); also called hTNF-α; huTNF-α
The experiment is described as follows: SPR (Biacore), antibody captured, TNF-α in solution. As to the method: The BIACORE assay (Biacore, Inc. Piscataway, N.J.) determines the affinity of antibodies with kinetic measurements of on-rate and off-rate constants. Binding of antibodies to a target antigen (for example, a purified recombinant target antigen) is determined by surface plasmon resonance-based measurements with a Biacore® 1000 or 3000 instrument (Biacore® AB, Uppsala, Sweden) using running HBS-EP (10 mM HEPES [pH 7.4], 150 mM NaCl, 3 mM EDTA, and 0.005% surfactant P20) at 25° C. All chemicals are obtained from Biacore® AB (Uppsala, Sweden) or otherwise from a different source as described in the text. For example, approximately 5000 RU of goat anti-mouse IgG, (Fcγ), fragment specific polyclonal antibody (Pierce Biotechnology Inc, Rockford, Ill., US) diluted in 10 mM sodium acetate (pH 4.5) is directly immobilized across a CM5 research grade biosensor chip using a standard amine coupling kit according to manufacturer's instructions and procedures at 25 μg/ml. Unreacted moieties on the biosensor surface are blocked with ethanolamine. Modified carboxymethyl dextran surface in flowcell 2 and 4 is used as a reaction surface. Unmodified carboxymethyl dextran without goat anti-mouse IgG in flow cell 1 and 3 is used as the reference surface. For kinetic analysis, rate equations derived from the 1:1 Langmuir binding model are fitted simultaneously to association and dissociation phases of all eight injections (using global fit analysis) with the use of Biaevaluation 4.0.1 software. Purified antibodies are diluted in HEPES-buffered saline for capture across goat anti-mouse IgG specific reaction surfaces. Antibodies to be captured as a ligand (25 μg/ml) are injected over reaction matrices at a flow rate of 5 μl/minute. The association and dissociation rate constants, kₒₙ (M⁻¹s⁻¹) and koff (s⁻¹), are determined under a continuous flow rate of 25 μl/minute. Rate constants are derived by making kinetic binding measurements at different antigen concentrations ranging from 10-200 nM. The equilibrium dissociation constant (M) of the reaction between antibodies and the target antigen is then calculated from the kinetic rate constants by the following formula: KD=koff/kₒₙ. Binding is recorded as a function of time and kinetic rate constants are calculated. In this assay, on-rates as fast as 10⁶ M⁻¹s⁻¹ and off-rates as slow as 10⁻⁶ s⁻¹ can be measured.

The target of experiment [2] is T1, Recombinant Human TNF-α/TNFSF1A. The experiment is described as follows: cell-based or functional assay.

As a reminder, the Kd is the constant that tells how readily two partners part at equilibrium. One may read the koff as the first-order rate constant of dissociation. By kon is commonly meant a measure of how fast the partners come together.

T1 sequence (P01375 77-233 limits assumed): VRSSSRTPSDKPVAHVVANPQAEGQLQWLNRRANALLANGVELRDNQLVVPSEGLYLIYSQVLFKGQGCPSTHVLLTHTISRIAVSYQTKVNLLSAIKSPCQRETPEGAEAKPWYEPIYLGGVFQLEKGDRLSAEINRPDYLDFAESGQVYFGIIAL

B1: AB248 (antibody, V domains shown)
VH: EVQLQESGPGLVKPSETLSLTCTVSGFSLSDYGVNWIRQPPGKGLEWIGMIWGDGSTDYDSTLKSRVTISKDTSKNQFSLKLSSVTAADTAVYYCAREWHHGPVAYWGQGTLVTVSS
VL: DIQMTQSPSSLSASVGDRVTITCKASQAVSSAVAWYQQKPGKAPKLLIYWASTRHTGVPSRFSGSGSGTDFTLTISSLQPEDFATYYCQQHYSTPFTFGQGTKLEIK
notes: also called hMAK195VH.1b / hMAK195VL.1
For the molecule B1, in experiment [1], the Kd came out at 0.174 nM, the koff is 0.000316 s⁻¹ and the kon turned out to be 1.82e+06 M⁻¹ s⁻¹. For the same molecule, the “TNF-α neutralization assay IC50 (nM), L929 cells” value (“TNF-α neutralization assay IC50” for short) in experiment [2] came to 0.213 nM.

B2: AB250 (antibody, V domains shown)
VH: EVQLQESGPGLVKPSETLSLTCTVSGFSLSDYGVNWIRQPPGKGLEWIGMIWGDGSTDYDSTLKSRVTISKDTSKNQFSLKLSSVTAADTAVYYCAREWHHGPVAYWGQGTLVTVSS
VL: EIVMTQSPATLSLSPGERATLSCKASQAVSSAVAWYQQKPGQAPRLLIYWASTRHTGIPARFSGSGSGTDFTLTISSLQPEDFAVYYCQQHYSTPFTFGQGTKLEIK
notes: also called hMAK195VH.1b / hMAK195VL.2
Take B2: in experiment [1], the Kd was found to be 0.179 nM, the koff came to 0.000356 s⁻¹ and the kon worked out at 2e+06 M⁻¹ s⁻¹. Further, the “TNF-α neutralization assay IC50” value in experiment [2] is 0.301 nM.

B3: AB260 (antibody, V domains shown)
VH: EVQLVESGGGLVQPGGSLRLSCAASGFTLSDYGVNWVRQAPGKGLEWVSMIWGDGSTDYDSTLKSRFTISKDNSKNTLYLQMNSLRAEDTAVYYCAREWHHGPVAYWGQGTLVTVSS
VL: DIQMTQSPSSLSASVGDRVTITCKASQAVSSAVAWYQQKPGKAPKLLIYWASTRHTGVPSRFSGSGSGTDFTLTISSLQPEDFATYYCQQHYSTPFTFGQGTKLEIK
notes: also called hMAK195VH.2b / hMAK195VL.1
With B3, in experiment [1], the Kd was determined as 0.101 nM, the koff worked out at 0.00023 s⁻¹ and the on-rate constant (kon) turned out to be 2.27e+06 M⁻¹ s⁻¹. The “TNF-α neutralization assay IC50” value in experiment [2] is 0.093 nM.

B4: AB247 (antibody, V domains shown)
VH: EVQLQESGPGLVKPSETLSLTCTVSGFSLSDYGVNWVRQPPGKGLEWLGMIWGDGSTDYDSTLKSRLTISKDNSKSQISLKLSSVTAADTAVYYCAREWHHGPVAYWGQGTLVTVSS
VL: EIVMTQSPATLSLSPGERATLSCKASQAVSSAVAWYQQKPGQSPRLLIYWASTRHTGVPARFSGSGSGTDFTLTISSLQPEDFAVYYCQQHYSTPFTFGQGTKLEIK
notes: also called hMAK195VH.1a / hMAK195VL.2a
Consider B4, for which, in experiment [1], the Kd worked out at 0.0996 nM, the koff is 0.00026 s⁻¹ and the kon was 2.62e+06 M⁻¹ s⁻¹. The “TNF-α neutralization assay IC50” value in experiment [2] amounted to 0.186 nM.

B5: AB243 (antibody, V domains shown)
VH: EVQLQESGPGLVKPSETLSLTCTVSGGSISDYGVNWIRQPPGKGLEWIGMIWGDGSTDYDSTLKSRVTISVDTSKNQFSLKLSSVTAADTAVYYCAREWHHGPVAYWGQGTLVTVSS
VL: EIVMTQSPATLSLSPGERATLSCKASQAVSSAVAWYQQKPGQSPRLLIYWASTRHTGVPARFSGSGSGTDFTLTISSLQPEDFAVYYCQQHYSTPFTFGQGTKLEIK
notes: also called hMAK195VH.1 / hMAK195VL.2a
As to B5, in experiment [1], the Kd worked out at 1.62 nM, the koff was determined as 0.0027 s⁻¹ and the kon was 1.72e+06 M⁻¹ s⁻¹. Moreover, the “TNF-α neutralization assay IC50” value in experiment [2] worked out at 50.7 nM.

B6: AB240 (antibody, V domains shown)
VH: EVQLQESGPGLVKPSETLSLTCTVSGGSISDYGVNWIRQPPGKGLEWIGMIWGDGSTDYDSTLKSRVTISVDTSKNQFSLKLSSVTAADTAVYYCAREWHHGPVAYWGQGTLVTVSS
VL: DIQMTQSPSSLSASVGDRVTITCKASQAVSSAVAWYQQKPGKAPKLLIYWASTRHTGVPSRFSGSGSGTDFTLTISSLQPEDFATYYCQQHYSTPFTFGQGTKLEIK
notes: also called hMAK195VH.1 / hMAK195VL.1
In the case of B6, in experiment [1], the Kd worked out at 1.4 nM, the koff is 0.00228 s⁻¹ and the kon was 1.64e+06 M⁻¹ s⁻¹. The “TNF-α neutralization assay IC50” value in experiment [2] stood at 14.2 nM.

B7: AB246 (antibody, V domains shown)
VH: EVQLQESGPGLVKPSETLSLTCTVSGFSLSDYGVNWVRQPPGKGLEWLGMIWGDGSTDYDSTLKSRLTISKDNSKSQISLKLSSVTAADTAVYYCAREWHHGPVAYWGQGTLVTVSS
VL: EIVMTQSPATLSLSPGERATLSCKASQAVSSAVAWYQQKPGQAPRLLIYWASTRHTGIPARFSGSGSGTDFTLTISSLQPEDFAVYYCQQHYSTPFTFGQGTKLEIK
notes: also called hMAK195VH.1a / hMAK195VL.2
For B7, in experiment [1], the dissociation constant Kd was found to be 0.0458 nM, the koff amounted to 0.000119 s⁻¹ and the kon came out at 2.61e+06 M⁻¹ s⁻¹. The “TNF-α neutralization assay IC50” value in experiment [2] stood at 0.099 nM.

B8: AB251 (antibody, V domains shown)
VH: EVQLQESGPGLVKPSETLSLTCTVSGFSLSDYGVNWIRQPPGKGLEWIGMIWGDGSTDYDSTLKSRVTISKDTSKNQFSLKLSSVTAADTAVYYCAREWHHGPVAYWGQGTLVTVSS
VL: EIVMTQSPATLSLSPGERATLSCKASQAVSSAVAWYQQKPGQSPRLLIYWASTRHTGVPARFSGSGSGTDFTLTISSLQPEDFAVYYCQQHYSTPFTFGQGTKLEIK
notes: also called hMAK195VH.1b / hMAK195VL.2a
As for B8, in experiment [1], the Kd was found to be 0.25 nM, the koff was determined as 0.000425 s⁻¹ and the kon worked out at 1.71e+06 M⁻¹ s⁻¹. For the same molecule, the “TNF-α neutralization assay IC50” value in experiment [2] worked out at 0.35 nM.

B9: AB242 (antibody, V domains shown)
VH: EVQLQESGPGLVKPSETLSLTCTVSGGSISDYGVNWIRQPPGKGLEWIGMIWGDGSTDYDSTLKSRVTISVDTSKNQFSLKLSSVTAADTAVYYCAREWHHGPVAYWGQGTLVTVSS
VL: EIVMTQSPATLSLSPGERATLSCKASQAVSSAVAWYQQKPGQAPRLLIYWASTRHTGIPARFSGSGSGTDFTLTISSLQPEDFAVYYCQQHYSTPFTFGQGTKLEIK
notes: also called hMAK195VH.1 / hMAK195VL.2
With B9, in experiment [1], the Kd was 0.796 nM, the koff turned out to be 0.00142 s⁻¹ and the kon came to 1.79e+06 M⁻¹ s⁻¹. In addition, the “TNF-α neutralization assay IC50” value in experiment [2] turned out to be 25.1 nM.

B10: AB241 (antibody, V domains shown)
VH: EVQLQESGPGLVKPSETLSLTCTVSGGSISDYGVNWIRQPPGKGLEWIGMIWGDGSTDYDSTLKSRVTISVDTSKNQFSLKLSSVTAADTAVYYCAREWHHGPVAYWGQGTLVTVSS
VL: DIQMTQSPSSLSASVGDRVTITCKASQAVSSAVAWYQQKPGKSPKLLIYWASTRHTGVPSRFSGSGSGTDFTLTISSLQPEDFATYYCQQHYSTPFTFGQGTKLEIK
notes: also called hMAK195VH.1 / hMAK195VL.1a
For B10, in experiment [1], the Kd was 0.573 nM, the koff was found to be 0.0013 s⁻¹ and the kon turned out to be 2.27e+06 M⁻¹ s⁻¹. Further, in experiment [2], the “TNF-α neutralization assay IC50” value came to 5.33 nM.

B11: AB249 (antibody, V domains shown)
VH: EVQLQESGPGLVKPSETLSLTCTVSGFSLSDYGVNWIRQPPGKGLEWIGMIWGDGSTDYDSTLKSRVTISKDTSKNQFSLKLSSVTAADTAVYYCAREWHHGPVAYWGQGTLVTVSS
VL: DIQMTQSPSSLSASVGDRVTITCKASQAVSSAVAWYQQKPGKSPKLLIYWASTRHTGVPSRFSGSGSGTDFTLTISSLQPEDFATYYCQQHYSTPFTFGQGTKLEIK
notes: also called A3249; hMAK195VH.1b / hMAK195VL.1a
In the case of B11, in experiment [1], the Kd is 0.156 nM, the koff amounted to 0.000315 s⁻¹ and the kon is 2.04e+06 M⁻¹ s⁻¹. Besides, in experiment [2], the “TNF-α neutralization assay IC50” value amounted to 0.245 nM.

B12: AB252 (antibody, V domains shown)
VH: EVQLVESGGGLVQPGGSLRLSCAASGFTFSDYGVNWVRQAPGKGLEWVSMIWGDGSTDYDSTLKSRFTISRDNSKNTLYLQMNSLRAEDTAVYYCAREWHHGPVAYWGQGTLVTVSS
VL: DIQMTQSPSSLSASVGDRVTITCKASQAVSSAVAWYQQKPGKAPKLLIYWASTRHTGVPSRFSGSGSGTDFTLTISSLQPEDFATYYCQQHYSTPFTFGQGTKLEIK
notes: also called hMAK195VH.2 / hMAK195VL.1
In the case of B12, in experiment [1], the Kd stood at 0.0866 nM, the koff is 0.000252 s⁻¹ and the kon came to 2.92e+06 M⁻¹ s⁻¹. For the same molecule, in experiment [2], the “TNF-α neutralization assay IC50” value is 0.222 nM.

B13: AB245 (antibody, V domains shown)
VH: EVQLQESGPGLVKPSETLSLTCTVSGFSLSDYGVNWVRQPPGKGLEWLGMIWGDGSTDYDSTLKSRLTISKDNSKSQISLKLSSVTAADTAVYYCAREWHHGPVAYWGQGTLVTVSS
VL: DIQMTQSPSSLSASVGDRVTITCKASQAVSSAVAWYQQKPGKSPKLLIYWASTRHTGVPSRFSGSGSGTDFTLTISSLQPEDFATYYCQQHYSTPFTFGQGTKLEIK
notes: also called hMAK195VH.1a / hMAK195VL.1a
B13: in experiment [1], the Kd was 0.0994 nM, the koff came out at 0.00033 s⁻¹ and the kon was 3.32e+06 M⁻¹ s⁻¹. Moreover, in experiment [2], the “TNF-α neutralization assay IC50” value worked out at 0.072 nM.

B14: AB244 (antibody, V domains shown)
VH: EVQLQESGPGLVKPSETLSLTCTVSGFSLSDYGVNWVRQPPGKGLEWLGMIWGDGSTDYDSTLKSRLTISKDNSKSQISLKLSSVTAADTAVYYCAREWHHGPVAYWGQGTLVTVSS
VL: DIQMTQSPSSLSASVGDRVTITCKASQAVSSAVAWYQQKPGKAPKLLIYWASTRHTGVPSRFSGSGSGTDFTLTISSLQPEDFATYYCQQHYSTPFTFGQGTKLEIK
notes: also called hMAK195VH.1a / hMAK195VL.1
B14: in experiment [1], the dissociation constant Kd was 0.0891 nM, the koff turned out to be 0.000335 s⁻¹ and the kon amounted to 3.8e+06 M⁻¹ s⁻¹. Besides, in experiment [2], the “TNF-α neutralization assay IC50” value came out at 0.155 nM.
